What was measured:
[1] = tested on: STAT3; experiment: STAT3 phosphorylation in human T cells; type: cell-based
Description: Western blotting of T-cell lysates. T cells were incubated (24 hr, 37° C.) in starvation medium (RPMI medium without serum). Aliquots (5×10^6/sample) of the starved cells were preincubated (for various intervals) with different concentrations of HSP60 prior to exposure to SDF-1α (100 ng/ml, 10 min, 37° C., tissue culture conditions). These reactions were terminated by freezing the plates (−70° C., 10 min). The plates were thawed, and the cells solubilized by incubating (60 min, 4° C.) in lysis buffer [EDTA (0.5 mM), NaCL (150 mM), NaF (10 nM), Tris pH 7.5 (25 mM), Triton X-100 (1%), PMSF (200 pg/ml), and phosphatase inhibitor cocktail (1%)]. Lysates were cleared by centrifugation (30 min, 14×10^3 rpm, 4° C.), and the resulting supernatants analyzed for protein content. Sample buffer was added, the samples were boiled, and equal amounts of proteins were separated by 10% SDS-PAGE and transferred to nitrocellulose membranes. […] Phosphorylation levels of the 3-5 independent experiments were estimated by densitometry, and an average percentage of phosphorylation±SD was calculated as OD of pERK/tERK, or pPyk2/tPyk2, or pAKT/tAKT, pMLC/tMLC, or pSTAT3/tSTAT3×100%.

[2] = tested on: ConA-induced hepatitis; experiment: ConA-induced hepatitis (acute liver injury); type: in vivo, BALB/c mice
[3] = tested on: BALB/c lymph node-cells; experiment: T-cell migration assay towards SDF-1α, mouse lymph node cells; type: cell-based, BALB/c mice; conditions: in vitro, HSP60 1 hr
Source text: Mice and mouse T cells. Female C57BL/6J were obtained from Harlan Olac (Bicester, U.K.). TLR2-knockout mice on the C57BL/6J background were kindly provided by Dr. S. Akira (Osaka University, Osaka, Japan). CD3^+ T cells were isolated by negative selection with anti-mouse antibody cocktail (Pan T cell kit; Miltenyi Biotec; CITY Germany). The labeled cells were then passed through separation columns (MidiMACS columns, Miltenyi Biotec). The purified cells (>97% T cells) were untreated or treated with HSP60 as described. Similarly, T cells were purified from the lymph nodes of BALB/c mice (females, 1.5 months of age).
T-cell migration assay. Migration of ^51[Cr]-labeled human and mouse T cells through FN or endothelial cells to recombinant human SDF-1α was examined in 48-well Transwell chemotaxis apparatus (5-μm pore filters, 6.5-mm diameter; Corning, N.Y.), as previously described (Zanin-Zhorov et al., 2003b). For transendothelial migration assays, 2×10^4 cells of HUVEC were layered on the filters and grown in 10% FCS M199 for 2 days before the performance of each assay. Then, HUVEC were stimulated with TNF-α (50 ng/ml) for 24 hr and washed.

[4] = tested on: DTH; experiment: DTH assay (adoptive transfer, oxazolone); type: in vivo, BALB/c mice; conditions: oxazolone-reactive lymph node cells exposed in vitro to 1 μg/ml for 1 hr; ear swelling 24 hr
Description: DTH assays. BALB/c mice (females; 1.5 months of age) were sensitized by painting of their shaved abdominal walls with Oxazolone (2%) emulsified in 100 μl of acetone/olive oil (Sigma-Aldrich). On day 5, mice were sacrificed, their draining (inguinal, mesenteric, and cervical) lymph nodes were collected, and a single cell suspension was prepared. The cells were treated with HSP60 (1 μg/ml; 1 hr; tissue culture conditions), washed, and injected (5×10^7 cells per mouse) i.v. into the tails of naive mice (at least 6 mice per group). Painting of the earlobes with oxazolone (10 μl of 0.5% in acetone/olive oil), which generates a DTH response, was performed immediately after cell inoculation. The area of the ears that was painted was measured before challenge and 24 hr later with a micrometer. Changes in earlobe thickness are indicative of DTH reactivity. All animal studies were performed in compliance with and were approved by laws and animal welfare guidelines of The Weizmann Institute of Science (IACUC).

[5] = tested on: human T cells; experiment: In vivo homing assay of human T cells to bone marrow; parameters: species or system NOD/SCID mice; conditions: T cells pretreated (HSP60 1 μg/ml for 1 hr or mAb); 16 hr after injection
Description: In vivo homing assay. Purified human T cells were incubated (1 hr, tissue culture conditions) with HSP60 (1 μg/ml) in tissue culture conditions. The cells were then washed with PBS, and, where indicated, further incubated (30 min, 4° C.) with mouse anti-human CXCR4 mAb (10 μg/3×10^6 cells), anti-human TLR2 or anti-TLR4 mAb (each at 20 μg/ml). The cells were then washed and injected (5×10^6 cells/0.5 ml per mouse) i.v. into the tails of irradiated (375 cGY from a ^60[Co] source), 8-week-old NOD/SCID mice, and the entrance of human T cells into the bone marrow of recipient mice was evaluated as previously described (Kollet et al., 2001). Each tested sample contained 1.5×10^6 cells.

[6] = i.p. 330 μl, 500 ng/ml, 18 and 1 hr prior to ConA, 24 hr after ConA

B1: HSP60: recombinant human heat shock protein 60 (StressGen Biotechnologies) (protein)
chain: AKDVKFGADARALMLQGVDLLADAVAVTMGPKGRTVIIEQSWGSPKVTKDGVTVAKSIDLKDKYKNIGAKLVQDVANNTNEEAGDGTTTATVLARSIAKEGFEKISKGANPVEIRRGVMLAVDAVIAELKKQSKPVTTPEEIAQVATISANGDKEIGNIISDAMKKVGRKGVITVKDGKTLNDELEIIEGMKFDRGYISPYFINTSKGQKCEFQDAYVLLSEKKISSIQSIVPALEIANAHRKPLVIIAEDVDGEALSTLVLNRLKVGLQVVAVKAPGFGDNRKNQLKDMAIATGGAVFGEEGLTLNLEDVQPHDLGKVGEVIVTKDDAMLLKGKGDKAQIEKRIQEIIEQLDVTTSEYEKEKLNERLAKLSDGVAVLKVGGTSDVEVNEKKDRVTDALNATRAAVEEGIVLGGGCALLRCIPALDSLTPANEDQKIGIEIIKRTLKIPAMTIAKNAGVEGSLIVEKIMQSSSEVGYDAMAGDFVNMVEKGIIDPTKVVRTALLDAAGVASLLTTAEVVVTEIPKEEKDPGMGAMGGMGGGMGGGMF
phosphorylation of STAT3 [1]: induced phosphorylation of STAT3
serum level of IL-6 ([2]; 2 hr after ConA): to a lesser extent
serum level of IL-10 ([2]; 2 hr after ConA): increasing the level of IL-10
serum level of TNF-α ([2]; 2 hr after ConA): reduced the levels of TNFα
histopathologic examination of liver sections ([2]; 24 hr after ConA): only minimal liver damage
GATA-3 expression in splenic T cells ([2]; P<0.05): significantly augmenting the expression
serum ALT [2, 6]: significantly (P≦0.05) inhibited the secretion of AST and ALT
serum AST [2, 6]: significantly (P≦0.05) inhibited the secretion of AST and ALT
SOCS3 expression in splenic T cells ([2]; mice treated with HSP60 only): became elevated following HSP60 treatment
SOCS3 expression in splenic T cells ([2]; mice treated with both ConA and HSP60): even more elevated
ConA-induced T-bet expression in splenic T cells ([2]; mouse, in vivo): suppressed the ConA-induced expression
migration of mouse lymph node cells towards SDF-1α [3]: inhibited migration of mouse lymph node cells towards SDF-1α
inhibition of ability to adoptively transfer DTH [4]: 50%
homing of human T cells to the bone marrow [5]: significantly (P<0.05) decreased their homing to the bone marrow

Source: patent US8691772B2, “HSP60, HSP60 peptides and T cell vaccines for immunomodulation” (Yeda Research and Development Co. Ltd., priority 2005, dated 2014)
